Data reported in PMC11960969, “Mdga2 deficiency leads to an aberrant activation of BDNF/TrkB signaling that underlies autism-relevant synaptic and behavioral changes in mice” (PLOS Biology, 2025).

Tests used:
TrkB = experiment: Co-IP of MDGA2, V930I or ΔMAM with TrkB in mouse primary neurons; format: binding; settings: n = 4, Fig 7E
From the text: (§1) Fig 7 The autism spectrum disorder (ASD)-associated MDGA2 V930I mutation impairs the MDGA2-TrkB interaction and MDGA2’s inhibitory effect on the tyrosine kinase B (TrkB) signaling. (A) Schematic depiction of the WT human MDGA2 and its V930I mutation constructs that are tagged with GFP. (B, C) HeLa cells (B) and mouse primary neurons (C) transfected with MDGA2 (green) or V930I (green) were immunostained with an antibody against the plasma membrane protein ATP1A1 (red) and then observed by confocal microscopy. Scale bars = 10 μm. (D) Cell surface expression of WT MDGA2 or V930I in transfected HeLa cells was determined by surface biotinylation assays. Biotinylated (cell surface) protein levels were quantified by densitometry and normalized to total protein levels for comparison (WT MDGA2 levels were set to one arbitrary unit). n = 4 experimental replicates. (E) Mouse primary neurons were transfected with MDGA2, V930I, or ΔMAM. […] Immunoprecipitated protein levels were quantified by densitometry, normalized to respective inputs, and compared to those transfected with MDGA2 (set to one arbitrary units). n = 4 experimental replicates. […] Levels of phosphorylated proteins were quantified by densitometry, normalized to respective total protein levels and compared to controls (set to one arbitrary units). n = 6 experimental replicates. […]

[1] = system: TrkB signaling (pTrkB, pAkt, pmTOR); experiment: Immunoblotting of TrkB/Akt/mTOR phosphorylation in primary neurons transfected with MDGA2, ΔMAM or V930I; format: cell-based, mouse; settings: Mdga2-/- neurons, n = 6, Fig 7F
Procedure: Fig 3 MDGA2 interacts with TrkB and suppresses TrkB activity. (A) Primary hippocampal neurons derived from Mdga2^ +/− (Het) mice and their wild-type (WT) littermates at DIV 7 were treated with different doses of BDNF for 30 min. Equal amounts of protein lysates were subjected to immunoprecipitation (IP) with an anti-TrkB antibody, followed by immunoblotting with an anti-phosphotyrosine (pTyr) antibody or the anti-TrkB antibody. The pTyr levels were quantified by densitometry, normalized to total TrkB levels, and then compared to those of WT controls. n = 3 per group. (B) WT mouse brain lysates were subjected to IP with an anti-MDGA2 antibody and a control IgG, and immunoblotted (IB) for the components indicated. mBDNF, mature BDNF; ImBDNF, immature BDNF. (C) Hippocampal neurons from WT mice at DIV 7 were immunostained with antibodies against MDGA2 (red) and TrkB (green), and then counter-stained with DAPI (blue). Images were acquired by a confocal microscope. Scale bar: 10 μm. (D) Surface plasmon resonance (SPR) analysis of the binding between recombinant MDGA2 protein and recombinant TrkB protein. TrkB was immobilized on a Biacore CM5 chip and tested for its binding with MDGA2 at the concentrations indicated. (E) Computer simulation of the binding mode of TrkB and MDGA2. The predicted binding domain of TrkB (the d5 domain) is highlighted by a red square and labeled in brown. The predicted binding domain of MDGA2 (the MAM domain) is highlighted by a red square and labeled in yellow. (F) HEK293T cells were co-transfected with TrkB-Flag and GFP-tagged full-length MDGA2 (MDGA2-GFP) or an MDGA2 deletion fragment lacking the entire MAM domain (ΔMAM-GFP). Cell lysates were subjected to IP with control IgG and antibodies against Flag or GFP, and immunoblotted for the components indicated. […] The scheme of MDGA2-ΔMAM is also shown. (G) HeLa cells were co-transfected with TrkB that is tagged with the N-terminal Venus fragment (TrkB-VN) and full-length MDGA2 or MDGA2-ΔMAM that are tagged with the C-terminal Venus fragment (MDGA2-VC or ΔMAM-VC) for 24 h. After immunostaining with antibodies against MDGA2/MDGA2-ΔMAM (pink) and TrkB (red), cells were observed by confocal microscopy. Venus signal (green) indicates the interaction between MDGA2 and TrkB. Schematic diagrams depicting the BiFC assay are also shown. Scale bars: 10 μm. (H, I) Equal amounts of protein lysates from primary neurons derived from Het, KO, and their WT littermate mice (H), and from WT primary neurons transfected with GFP control, MDGA2-GFP or ΔMAM-GFP (I) were subjected to IP with IgG and an anti-BDNF antibody, and then immunoblotted for the components indicated. Immunoprecipitated TrkB levels were quantified by densitometry, normalized to input levels, and compared to respective controls (set to one arbitrary units). n = 3 per group. (J) Neurons derived from KO mice were transfected with GFP control (Ctrl), MDGA2-GFP, or MDGA2-ΔMAM-GFP, and neurons derived from their WT littermates were transfected with GFP control (Ctrl). Equal amounts of protein lysates were subjected to immunoblotting for the proteins indicated. Levels of phosphorylated proteins were quantified by densitometry, normalized to respective total protein levels and compared to controls (set to one arbitrary units). n = 6 per group. Data represent mean ± SEM. P-values were determined by two-tailed unpaired Student t-test in (A) and one-way ANOVA with Tukey’s multiple comparisons test in (H, I, J). *p < 0.05, **p < 0.01, ***p < 0.001, ns: not significant. The data underlying this figure can be found in S1 Data, specifically in the sheet labeled “Figure 3”.
Fig 7 The autism spectrum disorder (ASD)-associated MDGA2 V930I mutation impairs the MDGA2-TrkB interaction and MDGA2’s inhibitory effect on the tyrosine kinase B (TrkB) signaling. (A) Schematic depiction of the WT human MDGA2 and its V930I mutation constructs that are tagged with GFP. […]

[2] = system: cell membrane localization in HeLa cells and mouse primary neurons; experiment: Immunostaining of membrane localization of MDGA2, ΔMAM or V930I in transfected cells; format: cell-based; settings: HeLa cells and mouse primary neurons, Fig 7B, 7C
From the text: as §1

HeLa cells = experiment: Cell surface biotinylation of MDGA2 or V930I in transfected HeLa cells; format: cell-based; settings: n = 4, Fig 7D
From the text: as §1

B1: MDGA2-V930I: MDGA2 with ASD-associated missense mutation V930I, GFP-tagged (protein)
chain: PPTVRIVHSGLACNIEEERYSERVYTIREGETLELTCLVTGHPRPQIRWTKTAGSASDRFQDSSVFNETLRITNIQRHQGGRYYCKAENGLGSPAIKSIRVDVYYLDDPVVTVHQSIGEAKEQFYYERTVFLRCVANSNPPVRYSWRRGQEVLLQGSDKGVEIYEPFFTQGETKILKLKNLRPQDYANYSCIASVRNVCNIPDKMVSFRLSNKTASPSIKLLVDDPIVVNPGEAITLVCVTTGGEPAPSLTWVRSFGTLPEKTVLNGGTLTIPAITSDDAGTYSCIANNNVGNPAKKSTNIIVRALKKGRFWITPDPYHKDDNIQIGREVKISCQVEAVPSEELTFSWFKNGRPLRSSERMVITQTDPDVSPGTTNLDIIDLKFTDFGTYTCVASLKGGGISDISIDVNISSSTVPPNLTVPQEKSPLVTREGDTIELQCQVTGKPKPIILWSRADKEVAMPDGSMQMESYDGTLRIVNVSREMSGMYRCQTSQYNGFNVKPREALVQLIVQYPPAVEPAFLEIRQGQDRSVTMSCRVLRAYPIRVLTYEWRLGNKLLRTGQFDSQEYTEYAVKSLSNENYGVYNCSIINEAGAGRCSFLVTGKAYAPEFYYDTYNPVWQNRHRVYSYSLQWTQMNPDAVDRIVAYRLGIRQAGQQRWWEQEIKINGNIQKGELITYNLTELIKPEAYEVRLTPLTKFGEGDSTIRVIKYSAPVNPHLREFHCGFEDGNICLFTQDDTDNFDWTKQSTATRNTKYTPNTGPNADRSGSKEGFYMYIETSRPRLEGEKARLLSPVFSIAPKNPYGPTNTAYCFSFFYHMYGQHIGVLNVYLRLKGQTTIENPLWSSSGNKGQRWNEAHVNIYPITSFQLIFEGIRGPGIEGDIAIDDVSIAEGECAKQDLATKNSID
modifications: left off: GFP, end not stated, kept
notes: MDGA2 with ASD-associated missense mutation V930I, GFP-tagged
- interaction with TrkB (IP) vs WT MDGA2 (TrkB): significantly decreased compared to that of WT MDGA2
- aberrant activation of TrkB/Akt signaling upon re-expression [1]: did not inhibit the aberrant activation of the TrkB/Akt signaling as WT MDGA2 did
- cell surface distribution (immunostaining) [2]: cell surface distribution was much less than that of WT MDGA2
- cell surface levels (biotinylation) (HeLa cells): significantly lower than those of WT MDGA2
